In paper PMC6585157:

Target: Mycoplasma hyopneumoniae enolase (Mhp Eno, MHP168_271) (Mycoplasma hyopneumoniae)
Assay: crystal structure

Mycoplasma hyopneumoniae enolase (Mhp Eno, MHP168_271) (enzyme)
stoichiometry N: 8
